From patent US20260241035A1, “FUNCTIONAL NUCLEIC ACID MOLECULE AND METHOD” (THE UNIVERSITY COURT OF THE UNIVERSITY OF EDINBURGH, priority 2022, published 2026)

B1: SSE-1: synthetic super-enhancer ID1101_ID2904_ID0109_ID4328, SEQ ID NO: 64 (nucleic acid)
DNA: GTGAGTGTGACTCACATGCTGGCATCAGAGCCCCTCTTAGAGCTTAGAACACTGGGCCTCTGTCAGGCAAAGAAAAGGAGTCCCTATGAATAGCCATCTCCACAAATAGCAGTTACTGTCACTTCTTAAAAGACACAAGCATGGCTGGAGACCGGCACTGTGCATGTTCTTGGGAAAAAGTGGTATTTAATGAAGGCGCTTTGAGCTGAATCAAAGAGCCTCATTCTTCTGAAAGTCCTTCTTCCTAGTCTCTGCATCCGGCTCCTATCAAAGGAAATCCACAGCTTTGGCTTTTCGTTGCTGTTGTCATGGAAATCGTTGAAATTGGATCCTGAGGAGAATGTCACCACCTCTTTGACAATAACTAGCTTTCAGAGCTGAACACAGTGAATCTGGATACTGTGTATATGTTTAAATGAGTTAGGAAATGACATCACATTATTTATTTCTTCTTTTGTGACTTAGTAAATTGACTTGGCCTACAATCTATTCTCCATAGTCATCAGAGTTTCTTTAAAGGCACGGTTCAGACAATGGCACCCTCTGTTCCAAACCCTCCAGGGCTTCCTATTTCACTTAGCATAAAAACCAAAGTCCTCACAATGACCGACAAGTCTTCACACAATGTGCCCCTTCATTG
B2: SSE-2: synthetic super-enhancer ID0109_ID4328_ID0876_ID2339, SEQ ID NO: 65 (nucleic acid)
DNA: GAAATTGGATCCTGAGGAGAATGTCACCACCTCTTTGACAATAACTAGCTTTCAGAGCTGAACACAGTGAATCTGGATACTGTGTATATGTTTAAATGAGTTAGGAAATGACATCACATTATTTATTTCTTCTTTTGTGACTTAGTAAATTGACTTGGCCTACAATCTATTCTCCATAGTCATCAGAGTTTCTTTAAAGGCACGGTTCAGACAATGGCACCCTCTGTTCCAAACCCTCCAGGGCTTCCTATTTCACTTAGCATAAAAACCAAAGTCCTCACAATGACCGACAAGTCTTCACACAATGTGCCCCTTCATTGGAGCAGGCAGTCATTTGGTTCCCTTCTCTGAATGCATTGGCTCTGATCCACGGCGCCTCAGGAAGTGAAAGGGAGCAGGCAGTGAGGCCAAGCCATGAATGTTGGGCCCTTTTCTTAGAAAACAAAGGGTTCACTTTAGGCTAGGAGGAAACATCCGGGGGTCGGCGGAACTGAGTCTCCTTTGTGGAGCCCCTCATTTGCATGATAAACCCCGGGGACAAAGTGTGTTCTTGTTACTTGGACTGTTTCTTGGAAACTGCTGCTACCTGGAGCGAGTGAACACAGGGCAAGTATTCTCGCCCACAGCAACGTGTCATTGA
B3: ID0885: enhancer fragment, SEQ ID NO: 14 (nucleic acid)
DNA: CAGCAAAGGCTGCACGCAATGGGGGAGGGGGAAGGAGGGAAGGATATTTCCTCCTTTTTAGATCAGTTTCTTTTCTGAGCACAAGTGCTTTCTGTGTCATCCTAACAATGTAAGAGCCCACTAAGTTTAGGACGCATAATACCGGCCTTTGTTCTACTCC
B4: ID3548: enhancer fragment, SEQ ID NO: 15 (nucleic acid)
DNA: TCCAAACACTCCCCTGCAACAGATGTACACACAGAGCCCATTGTTTTCTCTAGAAATGTAAACTGCACGTCACAGTTACTCCATACACACCACAAACAGACTCCCTTTGTTCTCAGGATATGTGTTGACACAAGAATATGTCATCCTCTCAGCTCCAGAC
B5: ID3146: enhancer fragment, SEQ ID NO: 16 (nucleic acid)
DNA: TGAAAGAGATGGGTGTGTGGGAGTGGGGGAAGCTGAGCTCCAGGCAGACAGCACAGAGCCGCCTTGTCCAACCCAGCCAGGTGCCATGGCAACCAACAAAGGCCCCATTGTCCCGTGTCTGCTGGGCCTTCCTGAGGCTCTGGGGTCAGAGTCCCGGTT
B6: ID4310: enhancer fragment, SEQ ID NO: 17 (nucleic acid)
DNA: TTGTCCTGCCTTTGAGAACACTGGAAGGGCACTGAAGGCTGACCAGCATGCACCTCACCCCACCTCCTCTCTGTCTCATCCTCAGCCATCTAAGCGGGAGACTCATCAGGCTTAAATTCTCATTCTTATCCAAGATTCTTCTGCTTCAAATGAG
B7: ID4428: enhancer fragment, SEQ ID NO: 18 (nucleic acid)
DNA: TCTAAATGGAGATCCTCCCATAAAGGGAGTTCTGTTTGGGCTTCCCTTGGAAGTCCATTGAAAGCGTTTCACATTTCAATGCTTCTTTACATTCTCCTCTAGAATGAATCTGGAAGGGCCATTTCATTCCAGCCCTATCAGATTTACTACTTCCTCCTGT
B8: ID0785: enhancer fragment, SEQ ID NO: 19 (nucleic acid)
DNA: AAGAATGAACTGGGCCCAGCTGGGCATTTGCATCAAAGTGCCTCACCAGAGTTCCCAGCTGCTCTGGCAGAGTGCCCAGGCTTGCCCCAGAGCCCAAACAGAATGCTCTTTGAGATGCCTCTGGTTTTCA
modifications: listed as DNA, chemistry not given here
B9: ID3836: enhancer fragment, SEQ ID NO: 20 (nucleic acid)
DNA: TACCCTTCCAGGGGAGCAGTTTCCTGGCTGTGTCGTCAGATACTGTGGTTTACGCTGTTCCGGAGTCTGGAGGTCTGTGTGCCTTTGATCTCTTTCCCAACTAATTTGCACAGCTGCTGTGGAGGCCCTCATGAATGACCTCTTTCTTTCCTTTCT
B10: ID3765: enhancer fragment, SEQ ID NO: 21 (nucleic acid)
DNA: TTGTCCTGCCTTTGAGAACACTGGAAGGGCACTGAAGGCTGACCAGCATGCACCTCACCCCACCTCCTCTCTGTCTCATCCTCAGCCATCTAAGCGGGAGACTCATCAGGCTTAAATTCTCATTCTTATCCAAGATTCTTCTGCTTCAAATGAG
B11: ID1176: enhancer fragment, SEQ ID NO: 22 (nucleic acid)
DNA: ACAAACTAAACACAGACATTTTCTCAATTAGTCATTTTCAGGTTTATTGCCTAAGATGCTAATTGAAATTCAGGGCAGGCAAAAATACATCATTGGCCTTTGTATATCTTTGAAAGGCCTTCTGATGGGACCTTGCTCCGTATAAAGGCTTCTCTTCTCT
B12: ID1888: enhancer fragment, SEQ ID NO: 23 (nucleic acid)
DNA: GACCTTGCCTCTTTCTGGCCTGTGGCCTTTCTCCTCCCCCAGCTGCTGTCTGGCCGCCCCACCCCCAAGTCTCTGCCACAACCAAAGCTCCTTTGTTGCCTCCCCCTGCCCCGGGCCTCTCCACCTGCTGCTAGCTCAATCCCCTCTTTGTGTGGTTGGT
B13: ID0291: enhancer fragment, SEQ ID NO: 24 (nucleic acid)
DNA: CATTCTTTGCAGATAGGAAACAGTTTGCTATCTGAGAGACTGGCCAAAAACCTTACTTTCAAGTAAAATAGGGCTCTATTCATAAGCTCCTACATGTACACAAGTTACTCTTTATACTCCTTTCAGACAATGATAAGAATAGAAACTATTTAATTCAGGA
B14: ID1244: enhancer fragment, SEQ ID NO: 25 (nucleic acid)
DNA: ACAGCAGCCAGAGGAAGTGGCTGTGTACAGAGAGCTTTTGTGAGAGAAGAGGGGGAGGGGGAAAGAGCAAAGAAAAAGAAGGAAAGAAGAGAGGGAAGAGGCCAGAGACAGAGAAGGCCAGAGCA
modifications: listed as DNA, chemistry not given here
B15: ID0456: enhancer fragment, SEQ ID NO: 26 (nucleic acid)
DNA: ATCACAAAGTGGTTAGCATGCAGGGGAGTGCGCCGGTCCCCCGCCTGTATTTGCATGACAAAAGCGCCTGCCCAACGGCTCTCGGTGGCTTTGTTGAGAGCTGCAGCCTCGCTCAGGCTGAGCCTTGGGAATTGTTCCCCGACATTGGTTGTTCCTGGGC
B16: ID1322: enhancer fragment, SEQ ID NO: 27 (nucleic acid)
DNA: GGGCAACAAAGGATGCCATGCAAAGCAGCTCAGAACTTGAGTTGTTTCAACAGATGCTGTTTTATGTTTTGCCAAAGAATGGCCCCTTTTATTTCTGTCATGAATGCAGTCTTTCTTTCAGTTTCTAAATGTTTGCCAGTATTAACCCTAATCCTTATCT

Each molecule was assayed on GSC7 cells (assay: Flow cytometry of mNGreen reporter in GSC7). Settings: not given.
Type: cell-based, human
Protocol: Cells were seeded at the required density. The following day the transfection was carried out. […] Following this step, the Plus reagent/Optimem premix was added to all DNA samples followed by the Lipofectamine LTX/Optimem premix. The transfection mix was incubated for 5 min at room temperature and then carefully dropped on the cells. Generally, no media change was carried out. Cells were analysed two days following transfection.
For flow cytometry, cells were detached, pelleted and resuspended in an appropriate volume of flow cytometry buffer (1% BSA in PBS, v/v). Cells were stained with Draq7 (Abcam, ab109202, f.c. 0.1 μM) as a live/dead stain and analysed using the BD LSRFortessa cell analyser (4 lasers, BD Bioscience).

In the case of B1, the “expression level compared with positive control CMV, flow cytometry” value is reported as “higher than CMV”.
With B2 the “expression level compared with positive control CMV, flow cytometry” value was “higher than CMV”.

For B1, the “fluorescence intensity compared with CMV” value was “higher intensity than CMV”.
With B2 the “fluorescence intensity compared with CMV” value was “higher intensity than CMV”.

The molecules below were run on GSC7 cells (assay: Nano-Glo Dual-Luciferase Reporter (Nanoglo DLR) assay of enhancer activity, fold change to mCMV). Settings: GSC7.
Type: cell-based, human
Summary of the method: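 160 bp enhancer fragments in NanoLuc reporter plasmids were co-transfected 1:10 with PGK-firefly luciferase into GSC7 cells using Lipofectamine LTX/Plus and read two days later. NanoLuc signal was normalised to firefly, then expressed as fold change to the empty mCMV vector.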

For B1, the “activity compared with CMV, Nanoglo DLR assay” value was “higher than CMV”.
In the case of B2, the “activity compared with CMV, Nanoglo DLR assay” value is reported as “higher than CMV”.

Same assay, conditions: expression fold change of the individual enhancer compared to mCMV

Compared with B3, B4 is lower in “Fold change (Median)” value: 42.6 fold for the first, 40.0 fold for the second.

Going from B5 to B6, the “Fold change (Median)” value falls from 37.2 fold to 36.3 fold.

Compared with B7, B8 is lower in “Fold change (Median)” value: 36.2 fold for the first, 34.3 fold for the second.

Compared with B9, B10 is lower in “Fold change (Median)” value: 33.4 fold for the first, 31.7 fold for the second.

First: B11
Second: B12
The “Fold change (Median)” value of the first is higher: 31.3 fold for the first, 31.1 fold for the second.

First: B13
Second: B14
The “Fold change (Median)” value of the first is higher: 29.0 fold for the first, 27.8 fold for the second.

Compared with B15, B16 is lower in “Fold change (Median)” value: 27.2 fold for the first, 26.7 fold for the second.
